# Assay: soluble on expression in E. coli; label from the status in PepcDB or PDB records
row,Sequence,soluble on expression in E. coli
1,MSLNERAKIKIIPLGGINEIGKNITAIEYKEDIIIIDCGLKFPDDDMFGIDIVIPDVSYLIKNSEKIKGIFLTHGHEDHIGALPYVLRQLNVPVYGTKLTLGIVETKLKEHGLLASTELVRVKPKDIIKLDSVSVEFIKTNHSIADSVAIAVHTPLGVVLHTGDFKIDYTPIDGEMMDFGRLAELGRKGVLVLMADSTNVERPGYTMTEKVVGETFLRLFGKAKGRLIVATFASNVHRIQQIITAAEAYEKKVAVSGRSMENIVQVAIELGYLTVGKDVLVPVDQISKYPNEKIVVITTGSQGEPMSALARMAASEHRKINVIPGDTVIISATPIPGNEKFVSKVINQLFKKGAQVIYDSQEKIHVSGHACQEELKLMQALVKPKFFVPVHGEYRHLKKHGELAMEVGLSEKNLLIPENGDVIEVAREGHHHHHH,soluble
2,MGSDKIHHHHHHVVRKINFMNLIELLKKIKRKILAQMFNLNYRPYTHTTVIFESFGGRQISDSPLAIYKELKKTHPEYRLIWVVNKGLATQAEKNGYDYVIRGSFKWVRTIEKAQVWVENARLPQWVRKPDHIKLIQTWHGTPLKKLGLDIKNVVMPGTNTERYHQNFVREANRWDVLISPNTYSTNIFRQAFGYQNKIVEIGYPRNDKLANPTKEEIKLLKQKLGIPLDKKVIMYAPTYRDNQFFQKGKYSFELPFSLKEFQERFGSNAVLLLRMHYLIANSMDISGFEDFAYDVSSYADISELYLVSDLLITDYSSVFFDYAYLKRPILFYPYDYEIYKDELRGFYLDYQKDLPGKIAYNSVDLYDEIENELKENDISNNQQFEMFYKRFCGLNAGNASKRIVEEIERNL,not soluble
3,MGSDKIHHHHHHMALVALPGGGAVDPAFWSVQAAEDFEQEIVDQYALAMAAAGLSDSHIRNTRSTIIEFARSVTGPLWAATCQDADRFLAEQRRLGRSVSTRAGKAGTLALFYEFMISRYQGRIHRLTGVLVEQPIDEFNRQAGASLGKVRVPPSDAEIDAFFTCWRHSIPQARKYLPAARDYFAASLWRRLGLRITETVMLDIRDWRPDLGGFGKLHVRYGKGAHGRGPKPRLVPAINGAAELIDWWLGDVRHRYGEDWADPDAPLLPSERFDRELGRCGRVGGNALRRSLGLQVDQWLPAWSGRMTPHVLRHYCASSLYGAGMDIKALQELLGHQWLSTTSGYIHVRSEHVEQAWKNANERVESRFATTQKEG,not soluble
4,MTSENSESQDIWLTDEQQDVWLDVWTMRIGLPARLDAQLKEAAGVSHFEYFTMAQISMAPEHRVRMSELAELSDMTLSHLSRVVTRLEKAGWVKRVPDPDDGRATVAVLTDSGWEKVKATAPGHVKEVRRLVFDDLTPEELKVMGTAMKKIVNRLDMSNRLPRV,not soluble
5,MTDLFASGDNSSNSFDDSNDEIARKNETAFKYTTIFHTNLSEKLYHELCALAFGEFDIPQGQISPLMWTRLHEIYSEVEMQTRKLPAGSNYSASSQKYANEAVQIASVLSIYTALAHEYDETVEVSLLSKLVVEDVEFRRIYALLLWSEKAISEQQYEKGLGDKVRKLEGIKSSRINSMMALKRPTFGAANAPKDASLDPDAPGTKEDQALEQMAMNVFFQLIRSGETSKAANLAIDLGMGAIGAQLQLHSMLRNPLDIPLEASKQNFGEYKRSRRAKYYQMTQKLIEQSQGSEDDAYWMLISAIRGNIQPMLKAGKSVIEKVWAYANSAVLARILAAEGAMTQETISTLFNVPLTSKSILDELRSEADRTKEVYILLRVIDDMLNDDIEDLYKFANETVGEFVPNDKNCQVNMLALDIFFHLVAVSYASGFEPNDDGNAVIILGFDDLRARSGTSSHKKMAAFYSRFLPEDMKLPEIVETMKAVDSDEEREILAESLKQSDIDFGRCACTLIEQIRKDDKTKVVTLEEQIDHWHWLLIGGEETALAALEECNRLVRKVMLSTPIDESVIRQIIRKALHFEVPKLLSQAVENEATVLSLITDGTLFEQKPGSQLAINKIEHAALEFYGLCSFVDVNNFMITIALKLGLMFKYTPITDDELSMIGGVKRLDNTTAADWEASLRVRARAEQTLREEVLKKRAAEHNTRVGMVQQHLDTVLPMLRGLVNNIGVRPEYFLSPRANGDPMRVHRKEIQEIRNLFLPQFFILLAQAAVRLDDTTNFNDFFTSFNNDLGLDQEWMVFIKAFYAELNLKVE,soluble
6,MAHHHHHHMIVVSSPKATNYDEWEKQLKARRIIMNCPDEMVVKAMCAWMKRGLEPDKQVECWNMVEKHMEKVGPIPRHIFDEDDYIDRMSAVDDALLSIKPTDVGEHFTLRGSKLWYSEVPSHKLLKVVREITEKGAEVFLNASISADIGFRIADRLEKEMATKDFLLLILRWRDALVSHALEKLGLRAFMYGELVIAIVEGLKELPPPSPSKPRSSVLKVNYQGYPTRAVGLKELQGGVTRIPMEYRVLYIPKVENFPLVDGFFFVDSPRKTLVGLQMTTASAHHKITSTVNLFNERMAEYFNGWEELSRDLSWEMIYIQHALSKEISKWQRCGPVNTENLSDTEKEIVAFWDGRVHQYQFVLTPDFVSKIREMRIQQSWGKGIGKKVREIIGEQSAFRFGKYIGKYFNDFYVCVCAYGV,not soluble
7,MTENFFGKTLAARPVEAIPGMLEFDIPVHGDNRGWFKENFQKEKMLPLGFPESFFAEGKLQNNVSFSRKNVLRGLHAEPWDKYISVADGGKVLGTWVDLREGETFGNTYQTVIDASKSIFVPRGVANGFQVLSDFVAYSYLVNDYWALELKPKYAFVNYADPSLDIKWENLEEAEVSEADENHPFLKDVKPLRKEDL,soluble
8,MSLENHHEAKTKLGQLWKLGNHYLLCGDATKLSDVEKLLQGKKANLVVTDPPYNVAVKSDNKELNESGREKIMNDDMSDEEFDQFLMSVFQNYSNAMRDDSAIYVFHGSSYQREFENSMNAAGIVVRSQCIWVKNNATFGWSQYRWQHEPVFYAHKKKQAPSWYGDRKQTTIWQDDLLEDLPATIWKVPRDDVATYYHPTQKPLSLIAIPVRNSSKRQDIVLDLFGGSGSTLMTCEQLNRICYTLELDPLFCDVIIERFEKSTGIIAELVEGHHHHHH,soluble
9,GMTQQTDLQSKTNIDPLAMNDSFLAAADALAVDPMFGIPANVREVIARRGNATRLVILGTKGFGAHLMNVRHERPCEVIAAVDDFRYHSGELYYGLPIISTDRFTELATHDRDLVALNTCRYDGPKRFFDQICRTHGIPHLNFEQAVRAFGLQGNVDYRVDDWGADIVRNIPAFQTLAQRLADDYSVQTLYAVLNFHLTCEPEYYHEVERPYSTLYFRSGLLRFSDSEKMVDCGASIGESLAGLIGVTKGKFERVWMIEPDRINLQTLQNVLRRYTDTNFASRITVHGCGAGENTIRVPFNHEGGHGGFVKPADADHEPADLIDVRPIDDIIDDAPTFIKMDIEGSELSALKGARRAISEHKPKLAISAYHRSTDLLDLTNYILSIRPDYQIGLRHHTPDRWDTCLYFY,soluble
10,MDNGDWGYMMTDPVTLNVGGHLYTTSLTTLTRYPDSMLGAMFGGDFPTARDPQGNYFIDRDGPLFRYVLNFLRTSELTLPLDFKEFDLLRKEADFYQIEPLIQCLNDPKPLYPMDTFEEVVELSSTRKLSKYSNPVAVIITQLTITTKVHSLLEGISNYFTKWNKHMMDTRDCQVSFTFGPCDYHQEVSLRVHLMEYITKQGFTIRNTRVHHMSERANENTVEHNWTFCRLARKTDD,not soluble
11,MTDSPGGVAPASPVEDASDASLGQPEEGAPCQVVLQGAELNGILQAFAPLRTSLLDSLLVMGDRGILIHNTIFGEQVFLPLEHSQFSRYRWRGPTAAFLSLVDQKRSLLSVFRANQYPDLRRVELAITGQAPFRTLVQRIWTTTSDGEAVELASETLMKRELTSFVVLVPQGTPDVQLRLTRPQLTKVLNATGADSATPTTFELGVNGKFSVFTTSTCVTFAAREEGVSSSTSTQVQILSNALTKAGQAAANAKTVYGENTHRTFSVVVDDCSMRAVLRRLQVGGGTLKFFLTTPVPSLCVTATGPNAVSAVFLLKPQK,soluble
12,MDSHQQPYASQAQADTTLFPEQTRESLQALAVKLQPLIEGHRLDNLVDLLSLLSDIVDLLDPAMVDRLAQLFEQVTSVGWSVGNAVRVAKAELLREQPPSLKDLLRLLRDADSRRGLALVLGSLRSLGRQLAAEQEVAHGA,not soluble
13,MDRRRFLVGLLGLGLARGQGLRVEEVVGGLEVPWALAFLPDGGMLIAERPGRIRLFREGRLSTYAELSVYHRGESGLLGLALHPRFPQEPYVYAYRTVAEGGLRNQVVRLRHLGERGVLDRVVLDGIPARPHGLHSGGRIAFGPDGMLYVTTGEVYERELAQDLASLGGKILRLTPEGEPAPGNPFLGRRGARPEVYSLGHRNPQGLAWHPKTGELFSSEHGPSGEQGYGHDEVNLIVPGGNYGWPRVVGRGNDPRYRDPLYFWPQGFPPGNLAFFRGDLYVAGLRGQALLRLVLEGERGRWRVLRVETALSGFGRLREVQVGPDGALYVTTSNRDGRGQVRPGDDRVLRLL,soluble
14,MSNQSKLNSAAYDQLNKDADRILHLIKVQMDNLTLPSCPLYEEVLDTQMFGLQKEVDFAVQLGLVDKEDGKQLMLRLEKELSKLHEAFTNV,not soluble
15,MASTGVERRKPLENKVALVTASTDGIGLAIARRLAQDGAHVVVSSRKQENVDRTVATLQGEGLSVTGTVCHVGKAEDRERLVAMAVNLHGGVDILVSNAAVNPFFGNIIDATEEVWDKILHVNVKATVLMTKAVVPEMEKRGGGSVLIVSSVGAYHPFPNLGPYNVSKTALLGLTKNLAVELAPRNIRVNCLAPGLIKTNFSQVLWMDKARKEYMKESLRIRRLGNPEDCAGIVSFLCSEDASYITGETVVVGGGTASRL,soluble
16,MHSVPSTGFPQSEFSGPFWTGRGVACARPNRYVWTARPSDQSSRRMSTSFSRRLRRLQSQKETALCVGLDPVPARFPPSLQDGRLRTDAVRAFCTTIVEATAPYACAFKPNFAFFEALGPAGLTVLDQVVTTIPDDCLVLGDAKRGDIGHSARHYAASIYEELGLDACTVSPYLGRDSVMPFLEHEGTCTFVLARTSNDGAADLQEACTCDGTPLYRHVARRVQAWNADAPGGAGLVVGATAPAALQDLRSLCPSLPFLVPGVGAQGGDAAAVMDAAATDEGPVLVNSSRSILYASEGPNYANAAADAARALRDALNGGASSSRGAPSPPALEHHHHHH,soluble
17,MGSDKIHHHHHHMTKPFYWNELNTYDFASLSPDSTIAVLPIASTEQHGPHLPIATDVAIANGMLAELKRQRPDDLNFLVLPTQEIGKANEHVYGPGTLSLSADLLIAAWTAIGAKVAEAGLRKLVIVNSHGGNVDIMSIVGRELRVRHKMAVVSTQWSRFGNPEGMISEHENRYGIHGGEVETSLMLHFRPELVRMDKAENFVSKAEWMKERSDFLQPLPPHSLAWIAHDLNPAGVVGDASKGTAEKGEAICRHQVSGFIQLLRDVRDYPLSALYSPE,not soluble
18,MSLKQKLSHPYLAKHISAPKIDEDKLLLFHALFEEADIKNNDRENYIVTAMLVQSALDTHDEVTTARVIKRDENKNRQLTVLAGDYFSGLYYSLLSEMKDIYMIRTLATAIKEINEHKIRLYDRSFKDENDFFESVGIVESALFHRVAEHFNLPRWKKLSSDFFVFKRLMNGNDAFLDVIGSFIQLGKTKEEILEDCFKKAKNSIESLLPLNSPIQNILINRLKTISQDQTYHQKEGHHHHHH,not soluble
19,MGSDKIHHHHHHMNAEKSPENHNVDHEEIAKFEAVASRWWDLEGEFKPLHRINPLRLGYIAERAGGLFGKKVLDVGCGGGILAESMAREGATVTGLDMGFEPLQVAKLHALESGIQVDYVQETVEEHAAKHAGQYDVVTCMEMLEHVPDPQSVVRACAQLVKPGGDVFFSTLNRNGKSWLMAVVGAEYILRMVPKGTHDVKKFIKPAELLGWVDQTSLKERHITGLHYNPITNSFKLGPGVDVNYMLHTQNK,not soluble

# Source: the DeepSol protein solubility set
